In the nanobody polyreactivity screen of Harvey et al. (2022):

Assay: yeast display, Sf9 membrane polyspecificity reagent, FACS + sequencing; frameworks hold sequencing errors
In short: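 Synthetic nanobody libraries on Saccharomyces cerevisiae BJ5465 were galactose-induced for 36–48 hours, stained 1 hour at 4 °C with 10% biotinylated, detergent-solubilized Sf9 membrane reagent and enriched on streptavidin microbeads. FACS then separated cells into low and high (top ~1%) gates by anti-HA (expression) and streptavidin (reagent binding) fluorescence. Genes were colony-PCR amplified, MiSeq 2 × 250 sequenced and CDR-length filtered. A clone's polyreactivity label is that of its gate of origin.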

Sequence | polyreactivity (PSR sort gate)
QVQLVESGGGLVQAGGSLRLSCAASGLTLYGYTMGWYRQAPGKERELGATITTGGDYTYYADSVKGRFTISRDNAKNTVYLQMNRLKPVDTAVYYCAAYSYGWDYSYDYWGQVTQVTVSS | low polyreactivity
QVQLVESGGGLVQAGGSLRLSCAASGLTLYQYSMGWYRQAPGKERELVAAIPTSGSTYFADSVKGRFTISRDNAKNTVYLQMNSLKPEDTAVYYCAADVYYVDTLSGYRYGYDYWGQCTQVTVSS | low polyreactivity
QVQLVESGGGLVQAGGSLRLSCAASGLTLYRYALGWYRQAPGKERELVAAISWGGGSTYYADSVKGRFTISRDNAKNTVYLQMNSLKPEDTAVYYCAAGRLLYIPRYYYWGQGTQVTVSS | high polyreactivity
QVQLVESGGGLVQAGGSLRLSCAASGLTSVRNAMGWYRQAPGKERELVAGISWSGGRTYYADSVKGRFTISRDNAKNTVYLQMNSLKPEDTAVYYCNKVRAYYTQEGSWGQGTQVTVSS | high polyreactivity
QVQLVESGGGLVQAGGSLRLSCAASGLYAMGWYRPAPGKERELVADINSSGGSITNYADSVKGRFTISRDNAKNTVYLQMISLKPEDTAVYYCAKRGPYFAYDYWGQGTQVTVSS | low polyreactivity
QVQLVESGGGLVQAGGSLRLSCAASGMGWYRQAPGKERELVATITTGGTYADSVKGRFTISRDNAKNTVYLQMNSLKPEDTAVYYCAADGLGSVYYLRYNYWGQGTQVTVSS | low polyreactivity
QVQLVESGGGLVQAGGSLRLSCAASGMIFKYYVMGWYRQAPGKERELVAAIRWSGGITSYADSVKGRFTISRDNAKNTVYLQMNSLKPEDTAVYYCAVAHSRLRTAYTFSVQRYDYWGQGTQVTVSS | low polyreactivity
QVQLVESGGGLVQAGGSLRLSCAASGMTFTDYAMGWYRQAPGKERELVAAISRSGGTTYYADSVKGRFTISRDNAKNTVYLQMNSLKPEDTAVYYCAARVTPGRNGGGYWGQGTQVTVSS | high polyreactivity
QVQLVESGGGLVQAGGSLRLSCAASGNAMGWYRQAPGKERELVASINRSGGRTYFADSVKGRFTISRDNAKNTVYLQMNRLIPEDTAVYYCAKGPRGADLTHGAYVEMEYWGQGTQVTVSS | low polyreactivity
QVQLVESGGGLVQAGGSLRLSCAASGNAMGWYRQAPGKERELVASINRSGGSTYYADSVKGRFTISRDNAKNTVYLQMNSLIPEDTAVYSCNTDVGATVEDDYWGQGTQVTVSS | low polyreactivity
QVQLVESGGGLVQAGGSLRLSCAASGNAMGWYRQAPGNERELVAAITRRGGSTYYADSVKGRFTISRDNAKNTVYLQMNSLKPEDTAVYYCAADNPSYNLWYGYWGQGTQVTVSS | low polyreactivity
QVQLVESGGGLVQAGGSLRLSCAASGNIFATYAMGWYRHAPGKEREFVAAITSRGGGTFYADSVKGRFTISRDNAKNTVYLQMNSLKPEDTAVYYCAARRSGHWLYGYWGQGTQVTVSS | high polyreactivity
QVQLVESGGGLVQAGGSLRLSCAASGNIFCINTMGWYRQAPGKERELVAAIDASDGSTYYADSVKGRFTISRDNAKNTVYLQMNSLKPEDTAVYYCATRSGYDSVYYFYTLWYYYWGQGTQVTVCS | low polyreactivity
QVQLVESGGGLVQAGGSLRLSCAASGNIFDEYTMGWYRQAPGKERELVAAINSGGSTDYADSVKGRFTISRDNAKNTVYLQMNSLKPEDTAVYYCARDVWPTKIQLQPGYGRGEYWGQGTQVTVSS | low polyreactivity
QVQLVESGGGLVQAGGSLRLSCAASGNIFDEYTMGWYRQAPGKERELVAAISWRGGSTYYADSVKGRFTISRDNAKNTVYLQMNSLKPEDTAVYYCNKAYPADYDYWGQGTQVTVSS | low polyreactivity
QVQLVESGGGLVQAGGSLRLSCAASGNIFDEYTMGWYRQAPGKERELVAGISWSGSHTYYADSVKGRFTISRDNAKNTVYLQMNSLKPEDTAVYYCIADSYPDYTGPGLDWYDYWGQGTQVTVSS | low polyreactivity

Sequence | polyreactivity (PSR sort gate)
QVQLVESGGGLVQAGGSLRLSCAASGNIFDGYAMGWYRQAPGKERELVAAISLSGGSTNYADSVKGRFTISRDNAKNTVYLQMNSLKPEDTAVYYCNARNWYYEGDYWGQGTQVTVSS | high polyreactivity
QVQLVESGGGLVQAGGSLRLSCAASGNIFDHYAMGWYRQAPGKEREMVAAISSGGSTSYADSVKGRFTITRDNAKTTVYVQMNCLKPEDTAVYYCAAESFVQYKSPKWVHRYDSWGQGTQVTVSS | low polyreactivity
QVQLVESGGGLVQAGGSLRLSCAASGNIFDRNAMGWYRHAPGKESELVAAISRSGGRTYYADSVKGRFTISRDNAKNTVYLQMNSLKPEDTAVYYCNRRYRNYSSAKYDYWGQGTQVTVSS | high polyreactivity
QVQLVESGGGLVQAGGSLRLSCAASGNIFDSYAMGWYRQAPGKERELVAAISFSGGNTYYADSVKGRFTISRDNAKNTVYLQMNSLKPEDTAVYYCAADYFAVTPYRAADVAEDYWGQGTQVTVSS | low polyreactivity
QVQLVESGGGLVQAGGSLRLSCAASGNIFDTYVMGWYRQAPGKERELVAAITSDGGTYYADSVKGRFTISRDNAKNTVYLQMNSLKPEDTAVYYCAADTYYYPIHDYWGQGTQVTVSS | low polyreactivity
QVQLVESGGGLVQAGGSLRLSCAASGNIFESYCMGWYRQAPGKERELVATINTSSGSTYYADSVKGRFTISRDTAKNTVYLQMNSLKPEDTAVYYCAAEWYPYPWGYGYWGQGTQVTVSS | low polyreactivity
QVQLVESGGGLVQAGGSLRLSCAASGNIFESYGMGWYRQAPGKERELVATINTSSGSTYYADSVKGRFTISRDNAKNSVYVQMNSLKPEDTAVYYCAAEWYPYPWGYGYWGQGTQVTVSS | low polyreactivity
QVQLVESGGGLVQAGGSLRLSCAASGNIFGDNAMGWYRQAPGKERELVAAITRIDGNTYYADSVKGRFTISRDNAKNTVYLQMNSLKPEDTAVYYCATDEPVGRYQHNYYWGQGSQVTVSS | low polyreactivity
QVQLVESGGGLVQAGGSLRLSCAASGNIFGFYTMGWNRQAPGKERELVAAIRSRGGSTNYADSVKGRFTISRDTAKNTVYLQMNSLKPEDTAVYYCNKDGTWLARAVTYADFDYWGQGTQVTVSS | low polyreactivity
QVQLVESGGGLVQAGGSLRLSCAASGNIFGIYAMGWYRQAPGKERELVAAIRGRGASTYYADSVKGRFTISRDNAKNTVYLQMNSLKPEDTAVYYCAVDVPLSRYWWRRTYDYWGQGTQVTVSS | low polyreactivity
QVQLVESGGGLVQAGGSLRLSCAASGNIFGKNVMGWYRQAPGKEREFVAAITSRGGRTNYADSVKGRFTISRDNAKNTVYLQMNSLKPEDTAVYYCATRYKSPSFDYWGQGTQVTVSS | high polyreactivity
QVQLVESGGGLVQAGGSLRLSCAASGNIFGVYAMGWYRQAPGKERELVAAITSGGTSTSYADSVKGRFTISRDNAKNTVYLQINSLKPEDTAVYYCATESSGKLSEYAYWGQGTQVTVSS | low polyreactivity
QVQLVESGGGLVQAGGSLRLSCAASGNIFGYYVMGWYRQAPGKERELVAGISSGDSTDYADSVKGRFTISRDNAKNTVYLQMNSLKPEDTAVYYCNADWNPTERWFYWYTPLGYDYWGQGTQVTVSS | low polyreactivity
QVQLVESGGGLVQAGGSLRLSCAASGNIFITNAMGWYRQAPGKERELVADISFSGGSTNYADSVKGRFTISRDNAKNTVYLQMNSLKPEDTAVYYCAARALASVSAHKYDNWGQGTQVTVST | low polyreactivity
QVQLVESGGGLVQAGGSLRLSCAASGNIFIYNAMGWYRQAPGQERELVAAISVSGGDTYYADSVKGRFTISRDNAKNTVYLQMNSLKPEDTAVYYCKASYVLTGQRYGYWGQGTQVTVSS | low polyreactivity
QVQLVESGGGLVQAGGSLRLSCAASGNIFKVNAMGWYRQAPGKERELVAGISWSGGSTYYADSVKGRFTISRDNAKNTVYLQMNSLKPEDTAVYYGNVGRGYWGYLYDYWGQGTQGTVSS | low polyreactivity
